In general, IC50 refers to the midpoint of a concentration-inhibition curve. In general, EC50 refers to the concentration giving half of the maximal effect. In general, Kd refers to the equilibrium constant for the complex coming apart. A word on the koff: it is the rate constant with which the complex falls apart. As a reminder, the kon is the second-order rate constant of association.

“And” between values parts separate entries of the source, which are not always exact repeats. Identical values can stand only once.

The target in assay [1] is T1, endogenous TL1A of stimulated cynomolgus monkey peripheral blood (cynomolgus monkey, UniProt G7PRK8 72-251).
T1 construct: also called sTL1A (cynomolgus)
T1 sequence: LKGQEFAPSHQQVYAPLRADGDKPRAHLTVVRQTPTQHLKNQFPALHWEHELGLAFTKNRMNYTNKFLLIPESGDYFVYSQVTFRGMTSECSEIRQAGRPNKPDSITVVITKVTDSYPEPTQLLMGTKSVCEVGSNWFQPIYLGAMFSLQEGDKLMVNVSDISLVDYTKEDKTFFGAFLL
The experiment in a line: MSD ligand-binding assay of 1D1 1.31-free sTL1A in plasma of stimulated cynomolgus blood; upper end over the monkeys; upper end of range over 6 monkeys.
Protocol: (§1) Cynomolgus monkey peripheral blood treated with 1 ng/ml recombinant human IL-12 and 10 ng/ml recombinant human IL-18 was stimulated by immune complex coated plates for 24 hours at 37° C. […] Plasma was prepared from these samples and IFNγ was measured in the plasma samples by a quantitative immune-ligand binding assay using a Mesoscale (MSD) kit. […] Cynomolgus monkey peripheral blood treated with 1 ng/ml recombinant human IL-12 and 10 ng/ml recombinant human IL-18 was stimulated by immune complex coated plates for 24 hours at 37° C.
(§2) For IC and IL-12 and IL-18 stimulation, cynomolgus monkey blood was collected in sodium heparin coated tubes and used within one hour after the blood draw. Human IL-12 (1 ng/mL final concentration) and human IL-18 (10 ng/ml final concentration) were mixed in with blood prior to addition of 95 μL of the blood/IL-12/IL-18 mixture to each well of the IC coated plates.

Assay [2] concerns the target T2, endogenous TL1A of stimulated human peripheral blood (human, UniProt O95150 72-251, limits assumed).
T2 construct: also called endogenous soluble TL1A
T2 sequence (looked up): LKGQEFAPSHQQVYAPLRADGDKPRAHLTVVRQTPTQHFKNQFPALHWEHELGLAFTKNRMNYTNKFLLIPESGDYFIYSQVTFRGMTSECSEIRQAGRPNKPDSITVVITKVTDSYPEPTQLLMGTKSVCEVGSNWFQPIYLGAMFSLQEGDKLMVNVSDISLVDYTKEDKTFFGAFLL
The experiment in a line: MSD ligand-binding assay of 1D1 1.31-free sTL1A in plasma of stimulated human blood.
Protocol: (§3) After 24 hours of culture at 37° C., 100 μL of 5% bovine serum albumin in PBS were added and mixed well with the 200 μL of blood cultures to dilute plasma (dilution factor: 1.5). […] IFNγ was measured using the MSD human IFNγ kit (Catalog No. K151AEB-1) following the manufacturer's instructions. […] The following day, plates were washed three times with 150 μL per well of 0.1% Tween 20 in PBS, followed with 150 μL per well of blocking solution (5% bovine serum albumin in PBS), then the plates were incubated at room temperature for 1 hour with orbital shaking (1500 rpm). After the plates were washed as mentioned above, diluted plasma samples were added and incubated at 4° C. overnight. […] TL1A standard curves were generated using recombinant human soluble TL1A. Plates were read following the manufacturer's procedure, standard curve and plasma concentration of the cytokine were calculated with the MSD software.

Assay [3] addresses T3, human TNFSF6 (FAS Ligand) (human, UniProt P48023 134-281, limits assumed).
T3 sequence (looked up): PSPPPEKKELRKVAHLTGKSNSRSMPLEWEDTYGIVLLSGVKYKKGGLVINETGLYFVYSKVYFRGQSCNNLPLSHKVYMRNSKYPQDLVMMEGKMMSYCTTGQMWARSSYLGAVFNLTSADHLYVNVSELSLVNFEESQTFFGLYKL
The experiment in a line: plate ELISA, TNFSF6 coated at 1 µg/mL, detection with anti-human IgG HRP. On the technique in general: ELISA stands for enzyme-linked immunosorbent assay.
Protocol: (§4) The first 6 rows of each plate were coated with the test article cytokine, and the last two rows were coated with TL1A as a positive control. Rows 1 and 2 were duplicate rows where the test article cytokine was tested for binding to increasing concentrations of its corresponding anti-cytokine positive control antibody. […] The experiment for each cytokine was repeated three times.
(§5) Plates were incubated overnight at 4° C. After washing the plates three times (3×) with 300 μL PBST using a plate washer (model ELx405; BioTek), plates were blocked by incubating for 1 hour at room temperature with 300 μL of blocking buffer (PBST+0.5% BSA) in each well. […] Plates were then washed 5 times with PBST using the plate washer.

Assay [4] concerns the target T2, endogenous TL1A of stimulated human …. The experiment in a line: MSD ligand-binding assay of 1D1 1.31-free soluble TL1A in plasma of human whole blood stimulated 24 h with immune complex + IL-12/IL-18.
Protocol: as §3
Assay [5] deals with T4, recombinant soluble human TL1A (human, UniProt O95150 71-251).
T4 construct: Homotrimer, expressed in HEK293 and purified over HitrapNTA; no tag is described; Used biotinylated in the HTRF assay and in flow cytometry; also called rsTL1A; hTL1A
T4 sequence: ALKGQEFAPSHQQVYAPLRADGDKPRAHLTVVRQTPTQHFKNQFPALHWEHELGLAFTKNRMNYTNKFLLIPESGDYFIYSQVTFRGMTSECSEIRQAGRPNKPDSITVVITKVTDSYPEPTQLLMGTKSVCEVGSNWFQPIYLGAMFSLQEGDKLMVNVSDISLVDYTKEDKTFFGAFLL
The experiment in a line: plate ELISA, TL1A coated, antibody titrated; plate of Lymβ 1.
Protocol: as §4, §5

For assay [6], the target named is T1, endogenous TL1A of stimulated …. The experiment in a line: MSD ligand-binding assay of 1D1 1.31-free sTL1A in plasma of stimulated cynomolgus blood; lower end over the monkeys; lower end of range over 6 monkeys.
Protocol: as §1, §2
Assay [7] deals with T5, recombinant soluble murine TL1A (mouse, UniProt Q5UBV8 75-252).
T5 construct: also called murine rsTL1A; mouse TL1A
T5 chain: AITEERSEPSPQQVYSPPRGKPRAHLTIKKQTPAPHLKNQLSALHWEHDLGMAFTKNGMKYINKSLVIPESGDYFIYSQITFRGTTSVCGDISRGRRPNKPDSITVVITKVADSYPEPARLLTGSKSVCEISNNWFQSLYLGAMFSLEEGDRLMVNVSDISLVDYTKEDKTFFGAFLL
The experiment in a line: SPR, IgG captured on anti-hIgG, TL1A injected. A general note: In SPR one partner is held on a chip, and binding of the other changes the refractive index at the surface.

Assay [8] has as its target T6, recombinant soluble cynomolgus monkey TL1A (cynomolgus monkey, UniProt O95150 72-251 (human entry)).
T6 construct: also called cyno rsTL1A; cyno TL1A
T6 chain: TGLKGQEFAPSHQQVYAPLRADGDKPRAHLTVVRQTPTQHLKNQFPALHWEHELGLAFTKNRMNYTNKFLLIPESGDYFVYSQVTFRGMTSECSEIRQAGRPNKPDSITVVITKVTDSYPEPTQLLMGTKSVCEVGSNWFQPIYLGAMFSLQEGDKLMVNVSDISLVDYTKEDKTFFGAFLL
The experiment in a line: KinExA, equilibrium in solution.
Protocol: (§6) This assay involves pre-incubating antibody: antigen mixtures in solution long enough to reach equilibrium before measuring the level of unbound antibody using a solid phase component. […] Beads were blocked for 1 hour with PBS plus 10 mg/ml bovine serum albumin (bovine serum albumin, Sigma) at room temperature before being diluted up to a total of 27 ml in PBS. […] For each titration series, a buffer sample and a sample of antibody alone were included. Each antibody: TL1A mixture was tumbled at room temperature for at least six hours to reach equilibrium and then each mixture was injected over the solid phase of TL1A-coated beads in the instrument flow cell. […] Beads were replenished between each sample. Binding signals of detected free antibody were converted to percentage of free, unbound antibody as measured by the antibody only sample and plotted versus each concentration of TL1A. For each antibody, the KD and ABC controlled curves were fit simultaneously using n-Curve Analysis software v3.1.4 to fit the curves to the ‘affinity, unknown ligand’ model and measure an equilibrium KD.
(§7) Solution-based kinetic exclusion assays (KinExA) were carried out as an orthogonal technique to measure equilibrium KD values.

For assay [9], the target named is T4, recombinant soluble human TL1A. The assay is described as follows: KinExA, equilibrium in solution. (In general: In KinExA the mixture passes briefly over coated beads that capture the unbound partner.)
Protocol: as §6, §7
Assay [10] addresses T5, recombinant soluble murine TL1A. The experiment in a line: KinExA, equilibrium in solution.
Protocol: as §6, §7
Assay [11] deals with T4, recombinant soluble human TL1A. The experiment in a line: flow cytometry, inhibition of the binding of 10 µg/mL biotinylated TL1A to DR3-transfected HEK293 cells.
The target of assay [12] is T1, endogenous TL1A of stimulated …. The assay is described as follows: MSD ligand-binding assay of 1D1 1.31-free sTL1A in plasma of stimulated cynomolgus blood; mean of n=6 monkeys.
Protocol: as §1, §2
The target of assay [13] is T7, recombinant soluble rabbit TL1A (rabbit).
T7 construct: also called rabbit rsTL1A
T7 chain: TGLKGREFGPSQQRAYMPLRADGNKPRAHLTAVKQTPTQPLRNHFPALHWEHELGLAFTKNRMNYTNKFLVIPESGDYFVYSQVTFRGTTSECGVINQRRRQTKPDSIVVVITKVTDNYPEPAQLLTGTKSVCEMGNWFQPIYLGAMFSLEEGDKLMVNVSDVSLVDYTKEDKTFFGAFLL
The experiment in a line: SPR, IgG captured on anti-hIgG, TL1A injected.
Description: (§8) The antibodies were captured via directly immobilized anti-human IgG (GE Healthcare) onto a carboxymethylated dextran sensor chip surface (CM5) using a Biacore T100 or T200 instrument. Anti-human IgG was immobilized through amine coupling to densities of approximately 4,000-13,000 response units (RU). […] At the end of each cycle, the entire anti-hIgG surface was regenerated by a 30-second pulse of 3M MgCl₂ followed by two consecutive 15-second pulses of PBS-NET. […] All injections were performed at 25° C. at a collection rate of 10 Hz. All sensorgrams were double referenced by using both a control surface and buffer injections. Rate constants were determined by fitting the data to a 1:1 model in Biacore T100, T200 evaluation software v1.0, or BIAevaluation software v4.1.1 and the equation KD=Kd/kₐ.
(§9) At the highest cytokine concentrations, the dissociation phase was sometimes extended to 60 minutes to achieve at least a 5% decrease in binding signal.

Assay [14] deals with T6, recombinant soluble cynomolgus monkey …. The experiment in a line: SPR, IgG captured on anti-hIgG, TL1A injected.
Description: as §8, §9
In assay [15] the target is T4, recombinant soluble human TL1A. The experiment in a line: plate ELISA, TL1A coated, antibody titrated; plate of TNFSF10.
Protocol: as §4, §5

B1: 1D1 1.31 (antibody, human IgG1, kappa, V domains shown)
VH: QVQLVQSGAEVKKPGASVKVSCKASGYDFTYYGISWVRQAPGQGLEWMGWISTYNGNTHYARMLQGRVTMTTDTSTRTAYMELRSLRSDDTAVYYCARENYYGSGAYRGGMDVWGQGTTVTVSS
VL: EIVLTQSPATLSLSPGERATLSCRASQSVSSYLAWYQQKPGQAPRLLIYDASNRATGIPARFSGSGSGTDFTLTISSLEPEDFAVYYCQQRSNWPWTFGQGTKVEIKR
notes: Full length human IgG1 with effector function-null mutations in the Fc, produced in CHO cells; Used biotinylated for staining of monocytes
In the case of B1, the concentration for half-maximal inhibition (IC50) is 90 pM in assay [1]; 1.06 pM in assay [2]; 0.114 pM in assay [6]; 18700 ng/mL in assay [11]; 22 pM in assay [12]. In addition, the binding result in assay [3] was “no binding (tested: 25 µg/ml)”. Further, the “IC50 (read off the curve)” value in [4] was about 5 pM. The half-maximal effective concentration (EC50) in assay [5] turned out to be 0.0063 ng/mL; in assay [15], 0.008 ng/mL. Also, the Kd in assay [7] is 1060 pM; in assay [8], 3.5 pM; in [9] it was 1.38 pM and 3.6 pM; in assay [10], 95.3 pM; in assay [13], 361 pM; in assay [14], 81 pM. For the same molecule, the off-rate constant (koff) in assay [7] was 0.00027 s⁻¹; in assay [13], 0.00011 s⁻¹; in assay [14], 3.6e-05 s⁻¹. The kon in assay [7] amounted to 270000 M⁻¹ s⁻¹; in [13] it was 320000 M⁻¹ s⁻¹; in assay [14], 450000 M⁻¹ s⁻¹. In addition, the t1/2 in assay [7] turned out to be 0.701 h; in [13] it was 1.69 h; in [14], 5.34 h.

The record behind these values is US20260210971A1 (Pfizer, published 2026).
